The target in this experiment is tag-free PTEN (human) (UniProt P60484). Kind of experiment: SEC-SAXS.

In article PMC4598300 one finds stoichiometry N data, which are given here for one substance.

Turning to “tag-free PTEN, P60484 1-403 (enzyme; other documents disagree on this pair)”, the stoichiometry N (usually a count of units in the complex or per binding partner) is 2.
